Experiment: yeast display, Sf9 membrane polyspecificity reagent, FACS + sequencing; frameworks hold sequencing errors
Procedure, shortened: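 Genes from sorted yeast were amplified by colony PCR, read by MiSeq 2 × 250 sequencing and filtered on CDR length. These cells carried a synthetic nanobody library in Saccharomyces cerevisiae BJ5465 and were sorted by FACS into low and high (top ~1%) gates on anti-HA and streptavidin fluorescence. Polyreactivity is labelled according to the gate of origin.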

Sequence	polyreactivity (PSR sort gate)
QVQLVESGGGLVQAGGSLRLSCAASGRTFQGYAMGWYRQATGKERELVAAISRSGGRTYYADSVKGRFTISRDNAKNTVYLQMNSLKPEDTAVYYCATDAFRDYGYWGQGTQVTVSS	high polyreactivity
QVQLVESGGGLVQAGGSLRLSCAASGRTFQGYVMGWYRQAPRKERELVAAISRGTSTYYADSVKGRFTISRDNAKYTVYLQMNSLKPEDTAVYYCAADGERRHYWGQGTQVTVSS	low polyreactivity
QVQLVESGGGLVQAGGSLRLSCAASGRTFQLNAMGWYRQAPGKERELFAAISTRGGSTYYADSVKGRFTISRDNAKNTVYLQMNSLKPEDTAVYYCATDPSFSRGYKEGGGYDYWGQGTQVTVSS	high polyreactivity
QVQLVESGGGLVQAGGSLRLSCAASGRTFQRNAMGWYRQAPGKERELVAAISWRGGSTYYADSVKGRFTISRDNAKNTVYLQMNSLKPEDTAVYYCNTYPSQYLWYDYWGQGTQVTVSS	high polyreactivity
QVQLVESGGGLVQAGGSLRLSCAASGRTFQTNAMGWYRQAPGKERELVAAISWSGGRTYYADSVKGRFTISRDNAKNTVYLQMNSLKPEDTAVYYCAARQWYRYKVRFDYWGQGTLVTVSS	high polyreactivity
QVQLVESGGGLVQAGGSLRLSCAASGRTFQTYAMGWYRQAPGKERELVAAISKSGGGTYYADSVKGRFTISRDNAKNTVYLQMNSLKPEDTAVYYCATAGYHYRAWGGRYDYWGQGTQVTVSS	high polyreactivity
QVQLVESGGGLVQAGGSLRLSCAASGRTFQVNAMGWYREAPGKERELVAAISIRSGRTYYADSVKGRFTISRYNAKNTVYLQMNSLKPEDTAVYYCAAYRISVYGVGYWGQGTQVTVSS	high polyreactivity
QVQLVESGGGLVQAGGSLRLSCAASGRTFQVNAMGWYRQAPGKERELVAAISRRGGSTYYADSVKGRFTISRDNAKNTVYLQMNSLKPEDTAVYYCAATASTYYLWRYNYWGQGTQVSVSS	high polyreactivity
QVQLVESGGGLVQAGGSLRLSCAASGRTFQYNAMGWYRQAPGKERELVAAISSSGGSTYYADSVKGRFTISRDNAKNTVYLQMNSLKPEDTAVYYCNAYSQSWNFYGDGDYWGQGTQVTVSS	low polyreactivity
QVQLVESGGGLVQAGGSLRLSCAASGRTFQYYAMGWYRQAPGKERELVAAISWSGASTYYADSVKGRFTISRDNAKNTVYLQMNSLKPEDTAVYYCAVKAGGSRYGYWGQGTHVTVSS	high polyreactivity
QVQLVESGGGLVQAGGSLRLSCAASGRTFRANAMGWYRQAPGKERELVAAISKRGGNTYYADSVKGRFTISRDNAKNTVYLQMNSLKPEDTAVYYCAADFIGRDYDYWGQGTQVTVSS	high polyreactivity
QVQLVESGGGLVQAGGSLRLSCAASGRTFRANAMGWYRQAPGKERELVAAISQRGGNTYYADSVKGRFTISRDKAKNTVYIQMNSLKPEDTAVYYCAADITTYRRGRYEYEYWGQGTQVTVSS	high polyreactivity
QVQLVESGGGLVQAGGSLRLSCAASGRTFRAYVMGWYRQAPGKERELVAAITGDGGSTYYADSVKGRFTISRDNAKNTVYLQMNSLKPEDTAVYYCAAGYVTVYGYYEYWGQGTQVTVSS	high polyreactivity
QVQLVESGGGLVQAGGSLRLSCAASGRTFRDNPMGWYRHAPGKERELVAAISGRGSSTYYADSVKGRFTIARDNAKKTVYLQMNSLKPEDTAVYYCAALPASVRRPGWHDYWGQGTQVTVSS	high polyreactivity
QVQLVESGGGLVQAGGSLRLSCAASGRTFRDYAMGWYRQAPGKERELVAAINWSGGTTSYADSVKGRFTISRDNAKNTVYLQMNSLKPEDTAVYYCAVPYLYKYSRYDYWGQGTQVTVSS	high polyreactivity
QVQLVESGGGLVQAGGSLRLSCAASGRTFRDYVMGWYRQAPGKERELVAVISYRGSTYYADSVKGRFTISRDNAKNTVYLLMNSLKPEDTAVYYCAARFSLEGGYYWGQGTQVTVSS	low polyreactivity
QVQLVESGGGLVQAGGSLRLSCAASGRTFRFYAMGWNRQAPGKERELVAAINWTGGSTYYADSVKGRFTISRDNAKNTVYLQMNSLKPEDTAVYYCAKVQDYRFEYWGQGTQVTVSS	high polyreactivity
QVQLVESGGGLVQAGGSLRLSCAASGRTFRFYAMGWYRQAPGKERELVATIRSGASTYYADSVKGRFTISRDNAKNTVYLQMNSLKPEDTAVYYCAAGLYFPYVSVIVFRSYDYWGQGTQVTVSS	high polyreactivity
QVQLVESGGGLVQAGGSLRLSCAASGRTFRFYTMGWYRQAPGKERELVADISWTSGRTYYADSVKGRFTISRDNAKNTVYLQMNSLKPEDTAVYYCAAYFFSRYSLYDYWGQGTQVTVSS	high polyreactivity
QVQLVESGGGLVQAGGSLRLSCAASGRTFRFYVMGWYRQAPGKERELVAVIRYRGGSTYYADSVKGRFTISRDNAKNTVYLHMNSLTPEDTAVYYCNADFLLAGNEYDYWGQGTQVTVSS	high polyreactivity
QVQLVESGGGLVQAGGSLRLSCAASGRTFRGNAMGWYRQAPGKERELVAAISRSGGTTYYADSVKGRFTISRDNAKNTVYLQMNSLKPEDTAVYYCNRGWATWHGPDDYWGQGTQVTVSS	high polyreactivity

Sequence	polyreactivity (PSR sort gate)
QVQLVESGGGLVQAGGSLRLSCAASGRTFRGYALGWYRQAPGKERELVAAISGGTTNYADSVKGRFTISRDNAKNTVYLQMNSLKPVDTAVYYCAAAQRQYWRYRLGYEYGSWGQGTQVTVSS	low polyreactivity
QVQLVESGGGLVQAGGSLRLSCAASGRTFRGYAMGWYRQAPGKERELVAAITSGGSTNYADSVKGRFTISRDNAKNTVYLQMNSLKPEDTAVYYCNRDTSKYGLWRYIYDYWGQGTQVTVSS	low polyreactivity
QVQLVESGGGLVQAGGSLRLSCAASGRTFRHNAMGWYRQAPGKERELVATINRGGNTYYADSVKGRFTISRDNAKNTVYLQMNSLKPEDTAVYYCAARRSFLFDEGNYWGQGTQVTVSS	low polyreactivity
QVQLVESGGGLVQAGGSLRLSCAASGRTFRIYATGWYRQAPGKERELVAAITRGGSTYYADSVKGRFTISRDNAKNTVYLQMNSLKPEDTAVYYCNAAPYYWGYDYWGQGTQVTVSS	high polyreactivity
QVQLVESGGGLVQAGGSLRLSCAASGRTFRKNVMGWYRQAPGKEREFVASISSSGSSTYYADSVKGRFTISRDYAKNTVYLQMNSLKPEDTAVYYCAARSVYATKRKYDYWGQGTQVTVSS	high polyreactivity
QVQLVESGGGLVQAGGSLRLSCAASGRTFRKYAMGWYRPAPGKERELVAAISWSGGSTRYADYVKGRFTISRDNEKNTVYLQMNSLKPEDTAVYYCNAVRRYRSTHPSYHTFNYWGQGTQVTVSS	high polyreactivity
QVQLVESGGGLVQAGGSLRLSCAASGRTFRLNAMGWYRQAPGKERELVAGIRVRAGTTYYADSVKGRFTLSRDNAKNTVYLQMNSLKPEDTAVYYCAAESYSRSRKYDYWGQGTQVTVSS	high polyreactivity
QVQLVESGGGLVQAGGSLRLSCAASGRTFRLYAMGWSRQAPGKERELVAAITRGGRTNYADSVKGRFTISRDNAKTTVYLQMTSLKPEDTAVYYCAARYVERHTDYYYWGQGTQVTVSS	low polyreactivity
QVQLVESGGGLVQAGGSLRLSCAASGRTFRLYAMGWYRQAPGKERELVAAISGSGGSTYYADSVKGRFTISRDNAKNTVYLQMNSLKPEDTAVYYCATAVHTAILNYWGQGTQVTVSS	low polyreactivity
QVQLVESGGGLVQAGGSLRLSCAASGRTFRNYAMGWYRPAPGKERELDAGITDSGGSTFYADSVKGRFTISRDNAKNTVYLQMNSLKPADTAVYYCAAVYVPYYWLGRSRGLDYWGQGTQVTVSS	high polyreactivity
QVQLVESGGGLVQAGGSLRLSCAASGRTFRNYAMGWYRQAPGKERELVAAINSGGSTNYADSVKGRFTISRDNAKNTVYLQMNSLKPEDTAVYYCAKRRTYPGKGRFNYWGQGTQVTVSS	low polyreactivity
QVQLVESGGGLVQAGGSLRLSCAASGRTFRPNAMRWYRQAPGKERELVASITRRGGTTYYADSVKGRFTISRDNAKNTVYLQMNSLKPEDTAVYYCNAPPGYSSTRNGYWGQGTQVTVSS	high polyreactivity
QVQLVESGGGLVQAGGSLRLSCAASGRTFRPYAMGWYRQAPGKERELVAAIRGSTGSTYADSVKGRFTISRDNAKNTVYLQMNSLKPEDTAVYSCATYRYYSGLGGGYWGQGTQVTVSS	high polyreactivity
QVQLVESGGGLVQAGGSLRLSCAASGRTFRPYAMGWYRQAPGKERELVAAISYRGGITNYADSVKGRFTISRDNAKNTVYLQMNSLKPEDTAVYYCNRYAIWVSRYSDLDYWGQGTQVTVSS	low polyreactivity
QVQLVESGGGLVQAGGSLRLSCAASGRTFRQYAMGWYRQAPGKERELVAAIRTNGGRTYYADSVKGRFTISRDNAKNTVYLQMNSLKPEDTAVYYCAVYAVVQGVLFDYWGQGTQVTVSS	high polyreactivity
QVQLVESGGGLVQAGGSLRLSCAASGRTFRQYAMGWYRQAPGKERELVARIRWRGGTTYYADSVKGRFTISRDNAKNTVYLQMISLKPEDTAVYYCAADKYGTEYDYWGQGTQVTVSS	high polyreactivity
QVQLVESGGGLVQAGGSLRLSCAASGRTFRRYAIGWYRQAPGKERELVATISSGGSTNYADSVKGRFTISRDNAKNTVYLQMNSLKPEDTAVYYCATPQTRTYDYWGQGTQGTVSS	high polyreactivity
QVQLVESGGGLVQAGGSLRLSCAASGRTFRRYAMGWYRQAPGKERELVAAISRGANTNYADSVKGRFTISRDNAKNTVYLQMNSLKPEDTAVYYCNAKQAGYYFAFGYWGQGTQVTVSS	high polyreactivity
QVQLVESGGGLVQAGGSLRLSCAASGRTFRRYAMGWYRQAPGKERELVAAITRGTRTNYADSVKGRFTISRDNAKNTVYLQMNSLKPEDTAVYYCNARRFLYSGGAYQFYYWGQGTQVTVSS	low polyreactivity
QVQLVESGGGLVQAGGSLRLSCAASGRTFRRYAMGWYRQAPGKERELVAAITSGGSTNYADSVKGRFTISRDNAKNNVYLQMNSLKPEDTAVYYCNARYFRGYDYWGQGTQVTVSS	high polyreactivity
